Assay results reported in PMC3672142, “A Binding-Site Barrier Affects Imaging Efficiency of High Affinity Amyloid-Reactive Peptide Radiotracers In Vivo” (PLoS ONE, 2013).
No end group written: not given here.

Columns and labels:
[1] = test system: cardiac and pancreatic amyloid; details: SAP imaging; no reference printed at this sentence (refs [14], [15] for SAP imaging); cited from earlier work
Description: Currently, there are no FDA-approved agents available in the USA for quantitative whole body imaging of visceral amyloid in vivo. […] However, there is no evidence that either this or the recently FDA-approved Aβ tracer Amyvid™ will facilitate detection of amyloid deposits in other visceral organs. Numerous amyloid-binding radiotracers have been described, e.g ...

AA amyloid = test system: AA amyloid; parameters: species or system H2-Ld-huIL-6 Tg Balb/c transgenic mice; details: mouse, in vivo, iv
Method: AA amyloidosis was induced in H2-Ld-huIL-6 Tg Balb/c transgenic mice that constitutively express the human interleukin-6 transgene, [21] by iv administration of 10 µg of isolated amyloid enhancing factor (AEF – a suspension of AA amyloid fibril extract, [22]) in 100 µL of sterile phosphate-buffered saline (PBS). Mice used in these studies were 4–6 wk post induction. These studies were carried out in strict accordance with a protocol approved by the University of Tennessee Institutional Animal Care and Use Committee. All procedures were approved by the IACUC and were performed in accordance with the guidelines provided by OLAW and the Guide for the Care and Use of Laboratory Animals.
Mice, wild type or those with AA-amyloid, were injected iv in the lateral tail vein with ∼10 µg (∼150 µCi) of radioiodinated (^123I or ^125I) peptide p5, p5R, p5R(1–24) or p5R mixed with 1 mg of unlabeled p5R peptide. […]
Samples of muscle, liver, spleen, pancreas, kidneys, heart, stomach, small and large intestines and lung tissue were harvested post mortem from every mouse. Each sample was placed into a tared, plastic vial, weighed and the ^125I or ^123I radioactivity measured using an automated Wizard 3 gamma counter (1480 Wallac Gamma Counter, Perkin Elmer). The biodistribution data were expressed as % injected dose/g tissue (% ID/g). […]

Row | Substance | detection of cardiac and pancreatic amyloid [1] | radioactivity in liver, spleen, pancreas and intestines compared to WT mice (AA amyloid)
1 | SAP: serum amyloid P component, used as 123I-SAP for planar scintigraphic imaging of amyloid | at best, poorly detected | 
2 | GGGYSRAQRAQARQARQAQRAQRAQARQARQ [p5R] |  | significant radioactivity seen in the liver, spleen, pancreas, and intestines as compared to the WT mice
